This is an account of results in US20170275666A1, “Methods for Preparing Rebaudioside I and Uses” (The Coca-Cola Company, priority 2014, published 2017).

First the molecules themselves.
B1: UGT76G1var23: UGT76G1 variant, mutations T263S_G348P_A352G (protein, UniProt Q6VAB4 1-458, looked up, variant T263S G348P A352G)
UDP-glycosyltransferase 76G1: MENKTETTVRRRRRIILFPVPFQGHINPILQLANVLYSKGFSITIFHTNFNKPKTSNYPHFTFRFILDNDPQDERISNLPTHGPLAGMRIPIINEHGADELRRELELLMLASEEDEEVSCLITDALWYFAQSVADSLNLRRLVLMTSSLFNFHAHVSLPQFDELGYLDPDDKTRLEEQASGFPMLKVKDIKSAYSNWQILKEILGKMIKQTKASSGVIWNSFKELEESELETVIREIPAPSFLIPLPKHLTASSSSLLDHDRSVFQWLDQQPPSSVLYVSFGSTSEVDEKDFLEIARGLVDSKQSFLWVVRPGFVKGSTWVEPLPDGFLGERGRIVKWVPQQEVLAHPAIGGFWTHSGWNSTLESVCEGVPMIFSDFGLDQPLNARYMSDVLKVGVYLENGWERGEIANAIRRVMVDEEGEYIRQNARVLKQKADVSLMKGGSSYESLESLVSYISSL
B2: UGT76G1var24: UGT76G1 variant, mutations A239I_P272A_Q425E (protein, UniProt Q6VAB4 1-458, looked up, variant A239I P272A Q425E)
UDP-glycosyltransferase 76G1: MENKTETTVRRRRRIILFPVPFQGHINPILQLANVLYSKGFSITIFHTNFNKPKTSNYPHFTFRFILDNDPQDERISNLPTHGPLAGMRIPIINEHGADELRRELELLMLASEEDEEVSCLITDALWYFAQSVADSLNLRRLVLMTSSLFNFHAHVSLPQFDELGYLDPDDKTRLEEQASGFPMLKVKDIKSAYSNWQILKEILGKMIKQTKASSGVIWNSFKELEESELETVIREIPIPSFLIPLPKHLTASSSSLLDHDRTVFQWLDQQAPSSVLYVSFGSTSEVDEKDFLEIARGLVDSKQSFLWVVRPGFVKGSTWVEPLPDGFLGERGRIVKWVPQQEVLAHGAIGAFWTHSGWNSTLESVCEGVPMIFSDFGLDQPLNARYMSDVLKVGVYLENGWERGEIANAIRRVMVDEEGEYIRENARVLKQKADVSLMKGGSSYESLESLVSYISSL
B3: UGT76G1var30: UGT76G1 variant, mutations I43V_E224A_S241I (protein, UniProt Q6VAB4 1-458, looked up, variant I43V E224A S241I)
UDP-glycosyltransferase 76G1: MENKTETTVRRRRRIILFPVPFQGHINPILQLANVLYSKGFSVTIFHTNFNKPKTSNYPHFTFRFILDNDPQDERISNLPTHGPLAGMRIPIINEHGADELRRELELLMLASEEDEEVSCLITDALWYFAQSVADSLNLRRLVLMTSSLFNFHAHVSLPQFDELGYLDPDDKTRLEEQASGFPMLKVKDIKSAYSNWQILKEILGKMIKQTKASSGVIWNSFKALEESELETVIREIPAPIFLIPLPKHLTASSSSLLDHDRTVFQWLDQQPPSSVLYVSFGSTSEVDEKDFLEIARGLVDSKQSFLWVVRPGFVKGSTWVEPLPDGFLGERGRIVKWVPQQEVLAHGAIGAFWTHSGWNSTLESVCEGVPMIFSDFGLDQPLNARYMSDVLKVGVYLENGWERGEIANAIRRVMVDEEGEYIRQNARVLKQKADVSLMKGGSSYESLESLVSYISSL
B4: UGT76G1var26: UGT76G1 variant, mutations S241I_F265L_F377C (protein, UniProt Q6VAB4 1-458, looked up, variant S241I F265L F377C)
UDP-glycosyltransferase 76G1: MENKTETTVRRRRRIILFPVPFQGHINPILQLANVLYSKGFSITIFHTNFNKPKTSNYPHFTFRFILDNDPQDERISNLPTHGPLAGMRIPIINEHGADELRRELELLMLASEEDEEVSCLITDALWYFAQSVADSLNLRRLVLMTSSLFNFHAHVSLPQFDELGYLDPDDKTRLEEQASGFPMLKVKDIKSAYSNWQILKEILGKMIKQTKASSGVIWNSFKELEESELETVIREIPAPIFLIPLPKHLTASSSSLLDHDRTVLQWLDQQPPSSVLYVSFGSTSEVDEKDFLEIARGLVDSKQSFLWVVRPGFVKGSTWVEPLPDGFLGERGRIVKWVPQQEVLAHGAIGAFWTHSGWNSTLESVCEGVPMIFSDCGLDQPLNARYMSDVLKVGVYLENGWERGEIANAIRRVMVDEEGEYIRQNARVLKQKADVSLMKGGSSYESLESLVSYISSL
B5: UGT76G1var29: UGT76G1 variant, mutations F22Y_V279I_N409R (protein, UniProt Q6VAB4 1-458, looked up, variant F22Y V279I N409R)
UDP-glycosyltransferase 76G1: MENKTETTVRRRRRIILFPVPYQGHINPILQLANVLYSKGFSITIFHTNFNKPKTSNYPHFTFRFILDNDPQDERISNLPTHGPLAGMRIPIINEHGADELRRELELLMLASEEDEEVSCLITDALWYFAQSVADSLNLRRLVLMTSSLFNFHAHVSLPQFDELGYLDPDDKTRLEEQASGFPMLKVKDIKSAYSNWQILKEILGKMIKQTKASSGVIWNSFKELEESELETVIREIPAPSFLIPLPKHLTASSSSLLDHDRTVFQWLDQQPPSSVLYISFGSTSEVDEKDFLEIARGLVDSKQSFLWVVRPGFVKGSTWVEPLPDGFLGERGRIVKWVPQQEVLAHGAIGAFWTHSGWNSTLESVCEGVPMIFSDFGLDQPLNARYMSDVLKVGVYLENGWERGEIARAIRRVMVDEEGEYIRQNARVLKQKADVSLMKGGSSYESLESLVSYISSL
B6: UGT76G1var25: UGT76G1 variant, mutations T284L_Q342K_Y397Q (protein, UniProt Q6VAB4 1-458, looked up, variant T284L Q342K Y397Q)
UDP-glycosyltransferase 76G1: MENKTETTVRRRRRIILFPVPFQGHINPILQLANVLYSKGFSITIFHTNFNKPKTSNYPHFTFRFILDNDPQDERISNLPTHGPLAGMRIPIINEHGADELRRELELLMLASEEDEEVSCLITDALWYFAQSVADSLNLRRLVLMTSSLFNFHAHVSLPQFDELGYLDPDDKTRLEEQASGFPMLKVKDIKSAYSNWQILKEILGKMIKQTKASSGVIWNSFKELEESELETVIREIPAPSFLIPLPKHLTASSSSLLDHDRTVFQWLDQQPPSSVLYVSFGSLSEVDEKDFLEIARGLVDSKQSFLWVVRPGFVKGSTWVEPLPDGFLGERGRIVKWVPQKEVLAHGAIGAFWTHSGWNSTLESVCEGVPMIFSDFGLDQPLNARYMSDVLKVGVQLENGWERGEIANAIRRVMVDEEGEYIRQNARVLKQKADVSLMKGGSSYESLESLVSYISSL
B7: UGT76G1var28: UGT76G1 variant, mutations L243A_S274G_P382M (protein, UniProt Q6VAB4 1-458, looked up, variant L243A S274G P382M)
UDP-glycosyltransferase 76G1: MENKTETTVRRRRRIILFPVPFQGHINPILQLANVLYSKGFSITIFHTNFNKPKTSNYPHFTFRFILDNDPQDERISNLPTHGPLAGMRIPIINEHGADELRRELELLMLASEEDEEVSCLITDALWYFAQSVADSLNLRRLVLMTSSLFNFHAHVSLPQFDELGYLDPDDKTRLEEQASGFPMLKVKDIKSAYSNWQILKEILGKMIKQTKASSGVIWNSFKELEESELETVIREIPAPSFAIPLPKHLTASSSSLLDHDRTVFQWLDQQPPGSVLYVSFGSTSEVDEKDFLEIARGLVDSKQSFLWVVRPGFVKGSTWVEPLPDGFLGERGRIVKWVPQQEVLAHGAIGAFWTHSGWNSTLESVCEGVPMIFSDFGLDQMLNARYMSDVLKVGVYLENGWERGEIANAIRRVMVDEEGEYIRQNARVLKQKADVSLMKGGSSYESLESLVSYISSL
B8: UGT76G1var27: UGT76G1 variant, mutations A239I_L379A_V394I (protein, UniProt Q6VAB4 1-458, looked up, variant A239I L379A V394I)
UDP-glycosyltransferase 76G1: MENKTETTVRRRRRIILFPVPFQGHINPILQLANVLYSKGFSITIFHTNFNKPKTSNYPHFTFRFILDNDPQDERISNLPTHGPLAGMRIPIINEHGADELRRELELLMLASEEDEEVSCLITDALWYFAQSVADSLNLRRLVLMTSSLFNFHAHVSLPQFDELGYLDPDDKTRLEEQASGFPMLKVKDIKSAYSNWQILKEILGKMIKQTKASSGVIWNSFKELEESELETVIREIPIPSFLIPLPKHLTASSSSLLDHDRTVFQWLDQQPPSSVLYVSFGSTSEVDEKDFLEIARGLVDSKQSFLWVVRPGFVKGSTWVEPLPDGFLGERGRIVKWVPQQEVLAHGAIGAFWTHSGWNSTLESVCEGVPMIFSDFGADQPLNARYMSDVLKIGVYLENGWERGEIANAIRRVMVDEEGEYIRQNARVLKQKADVSLMKGGSSYESLESLVSYISSL

The data set in a line: Directed evolution of UGT76G1, conversion of Rebaudioside D to Rebaudioside M (round 1). The class given is biochemical. The following applies: 0.5 mM Rebaudioside D, 2.5 mM UDP-Glucose, 100 μL fresh lysate, 30° C., pH 7.2. An excerpt:
Starting from the amino acid sequence of UGT76G1, as is described in Genbank (AAR06912.1), different mutations at various amino acid positions were identified that could alter the activity of the enzyme for the transformation of Rebaudioside D (Reb D) to Rebaudioside M (Reb M). This list of mutations, designed by DNA2.0 ProteinGPS™ strategy, was subsequently used to synthesize 96 variant genes that contained 3, 4 or 5 of these mutations that were codon-optimized for expression in E. coli. The genes were subcloned in the pET30a+ plasmid and used for transformation of E. coli BL21 (DE3) chemically competent cells. The obtained cells were grown in Petri-dishes on solid LB medium in the presence of Kanamycin. Suitable colonies were selected and allowed to grow in liquid LB medium in tubes. Glycerol was added to the suspension as cryoprotectant and 400 μL aliquots were stored at −20° C. and at −80° C.
These storage aliquots of E. coli BL21(DE3) containing the pET30a+_UGT76G1var plasmids were thawed and added to LBGKP medium (20 g/L Luria Broth Lennox; 50 mM PIPES buffer pH 7.00; 50 mM Phosphate buffer pH 7.00; 2.5 g/L glucose and 50 mg/L of Kanamycine). This culture was allowed to shake in a 96 microtiter plate at 135 rpm at 30° C. for 8 h.
3.95 mL of production medium containing 60 g/L of Overnight Express™ Instant TB medium (Novagen®), 10 g/L of glycerol and 50 mg/L of Kanamycin was inoculated with 50 μL of above described culture. In a 48 deepwell plate the resulting culture was allowed to stir at 20° C. The cultures gave significant growth and a good OD (600 nm; 1 cm) was obtained. After 44 h, the cells were harvested by centrifugation and frozen.
Lysis was performed by addition of Bugbuster® Master mix (Novagen®) to the thawed cells and the lysate was recovered by centrifugation. Activity tests were performed with 100 μL of fresh lysate that was added to a solution of Rebaudioside D (final concentration 0.5 mM), MgCl2 (final concentration 3 mM) and UDP-Glucose (final concentration 2.5 mM) in 50 mM phosphate buffer pH 7.2.
The reaction was allowed to run at 30° C. and samples were taken after 2, 4, 7 and 24 h. to determine conversion and initial rate by HPLC (CAD detection) using the analytical method that was described above for the transformation of Rebaudioside D to Rebaudioside M. The results are depicted in the following table.
Consider B1, for which the “Conversion Reb D to Reb M after 24 h (%)” value turned out to be 47.8% and the “initial rate (Reb M area/min)” value is 4.1E+07 Reb M area/min.
Turning to B2, the “Conversion Reb D to Reb M after 24 h (%)” value is reported as 31.0% and the “initial rate (Reb M area/min)” value was found to be 2.1E+07 Reb M area/min.
As to B3, the “Conversion Reb D to Reb M after 24 h (%)” value is recorded as 13.6% and the “initial rate (Reb M area/min)” value was found to be 5.6E+06 Reb M area/min.
In the case of B4, the “Conversion Reb D to Reb M after 24 h (%)” value stood at 1.8% and the “initial rate (Reb M area/min)” value is 7.5E+05 Reb M area/min.
In the case of B5, the “Conversion Reb D to Reb M after 24 h (%)” value is reported as 41.0% and the “initial rate (Reb M area/min)” value was determined as 2.9E+07 Reb M area/min.
As for B6, the “Conversion Reb D to Reb M after 24 h (%)” value was found to be 0.9% and the “initial rate (Reb M area/min)” value is 6.3E+04 Reb M area/min.
Consider B7, for which the “Conversion Reb D to Reb M after 24 h (%)” value was 6.1% and the “initial rate (Reb M area/min)” value was determined as 2.4E+06 Reb M area/min.
As to B8, the “Conversion Reb D to Reb M after 24 h (%)” value is recorded as 29.0% and the “initial rate (Reb M area/min)” value is recorded as 1.5E+07 Reb M area/min.
